The record followed here is patent publication US20060177448A1, “Inhibiting HER2 shedding with matrix metalloprotease antagonists” (Genentech, Inc., priority 2005, published 2006).

The test system of this experiment is SKBR-3 cells. Briefly: HER2 ECD ELISA of conditioned media (HER2 shedding), SKBR-3 cells. Type of experiment: cell-based, human. To be noted: 1 μg/ml. For orientation: ELISA stands for enzyme-linked immunosorbent assay.

Procedure: BT 474, MCF-7, and SKBR-3 cells were maintained in high-glucose DMEM:Ham's F12 (50:50) supplemented with 10% heat-inactivated FBS and 2 mM L-Glutamine. […] Cell lines were maintained at 37° C. in a humidified incubator supplied with 5% CO2. BT 474 and SKBR-3 cells were transiently transfected with constructs as described by electroporation using kit V according to the manufacturer's instructions (AMAXA™).
Serum was diluted 1:50 using assay buffer (PBS/0.5% BSA, 0.05% TWEEN® 20/10 ppm PROCLIN® 300/0.2% BGG/0.25% CHAPS/0.15 M NaCl/5mM EDTA (pH 7.4) followed by additional 1:2 serial dilutions. Shed HER2 was captured using a goat anti-HER2 polyclonal antibody (Genentech) onto NUNC® Maxisorp plates and detected using a biotin-conjugated rabbit anti-HER2 polyclonal antibody (Genentech) followed by a AMDEX™-strepavidin-horseradish peroxidase antibody (Amersham Pharmacia Biotech) following a procedure described previously (Sias et al., J. Immunol. Meth. 109:219-27 (1990)). For cell culture experiments, cells were treated as indicated and conditioned media was collected and diluted in assay buffer serially 1:2. The concentration of shed HER2 in serum or in conditioned media was determined from a four-parameter fit of a standard curve using purified recombinant HER2 ECD protein (Genentech) as a standard.
The pSIREN shRNA construct(s) or vector alone were transiently transfected into SKBR-3 and BT 474 cells using AMAXA™ kit V following manufacturer's recommendations. After 48 hours, conditioned media was collected and assayed for shed HER2 by HER2 ELISA and the cells were lysed directly on the plate using 2×Sample buffer.

B1: Timp-3: naturally occurring peptides that regulate metalloprotease activity (protein, UniProt P35625 24-211, looked up)
Metalloproteinase inhibitor 3: CTCSPSHPQDAFCNSDIVIRAKVVGKKLVKEGPFGTLVYTIKQMKMYRGFTKMPHVQYIHTEASESLCGLKLEVNKYQYLLTGRVYDGKMYTGLCNFVERWDQLTLSQRKGLNYRYHLGCNCKIKSCYYLPCFVTSKNECLWTDMLSNFGYPGYQSKHYACIRQKGGYCSWYRGWAPPDKSIINATDP
For the molecule B1, the “HER2 ECD levels in conditioned media” value was “reduced HER2 ECD levels”.
